The nature of series [1]: western blot of β1 in purified sEVs. The note with it: glycan changed form; control: vec-sEVs. (Immunoblotting shows a protein as a band on a membrane.)
Series [2] is described as follows: western blot of cell lysates. The note with it: glycan changed form; control: MDA/vec.

Drawing on article PMC7710122, this text covers localisation_or_trafficking and expression_or_secretion for one substance.

For the substance integrin β1: MGAT3 overexpression, in series [1], the localisation_or_trafficking result is reported as “no change”. Moreover, the expression_or_secretion entry in series [2] is given as “no change”.
